Results taken from patent US12214014B2, “Methods for scar reduction by converting scar fibroblasts into adipocytes with hair follicle-derived signals” (The Trustees of the University of Pennsylvania, priority 2017, dated 2025).
“Also recorded” adds a separate entry of the source.

B1: BMP4: human recombinant bone morphogenetic protein 4 (R&D Systems) (protein, UniProt P12644 293-408, looked up)
Bone morphogenetic protein 4: SPKHHSQRARKKNKNCRRHSLYVDFSDVGWNDWIVAPPGYQAFYCHGDCPFPLADHLNSTNHAIVQTLVNSVNSSIPKACCVPTELSAISMLYLDEYDKVVLKNYQEMVVEGCGCR

Legend:
[1] = system: regenerated adipocytes in wounds; test: Adipocyte regeneration in large excisional skin wounds (adipocyte/hair follicle index, Oil Red O); assay type: in vivo, mouse; conditions: for Adipocyte/hair index (new adipocyte/follicle ratio): WT mice treated during wound healing, post-wounding Day 28; for regeneration of new adipocytes in hair-bearing wounds: treatment during wound healing (2 mg/kg), hair follicles regenerate normally
Procedure: (§1) All animal experiments were carried out in accordance to with the guidelines of the IACUC of the University of Pennsylvania and the University of California, Irvine. Full thickness 1.5×1.5 cm (2.25 cm^2) excisional wounds were inflicted on the backs of three to eight week-old mice as described in M. Ito et al., Nature 447:316 (2007).
Whole mount wounds were stained for Oil Red O and the number of regenerated hair follicles was counted from the skin surface, where each new hair is clearly visible. The number of new adipocytes was counted from the underside, where each adipocyte is clearly visible due to their very large size and prominent marking by Oil Red O dye. For each experiment, adipose tissue regeneration was quantified as the ratio of all new adipocytes/all new hair follicles (aka adipocyte/hair follicle index). Some wound samples (FIG. 2B) were stained for lacZ and photographed, then additionally stained for Oil Red O and photographed again. Adipocytes were then micro-dissected and photographed under stereomicroscope.

Zfp423 = Zfp423 reporter (lacZ) activity in wounds of Zfp423-lacZ mice; assay type: in vivo, mouse; conditions: 2 mg/kg during wound healing, day 21
Procedure: FIG. 25: BMP signaling is necessary for Zfp423 reporter activation in wounds. […] Asterisk marks lacZ-positive dermal papillae of new hair follicles. Size bars: 100 μm.
as §1

[2] = system: human hypertrophic scar fibroblasts; test: Primary human adipogenic cell culture, hypertrophic scar fibroblasts; assay type: cell-based; conditions: n=3
Procedure: (§2) All human experiments were carried out in accordance with the guidelines of the IRB of the University of California, Irvine, Children's Hospital Los Angeles and Kyungpook National University. Keloid fibroblasts were isolated as described in Y. S. Lee et al., Wound repair and regeneration: official publication of the Wound Healing Society [and] the European Tissue Repair Society 24:302 (2016). Human hypertrophic scar myofibroblasts were derived from clinical specimen biopsies and expanded in vitro as described in M. Vangipuram et al., Journal of visualized experiments: JoVE, e3779 (2013).
Primary human scar cells were cultured in DMEM/F12 media (Gibco) supplemented with 10% FBS (Fisher Scientific). Upon confluency, cells were switched to serum free DMEM/F12 media and treated with 20 ng/ml recombinant hBMP4 protein (R&D Systems) for 48 hours before differentiation. For the hair follicle co-culture, cells were grown in 12-well trans-well plates. Once near confluency, medium was changed to William's E hair follicle organ culture medium, and 40 microdissected human scalp anagen hair follicles were co-cultured on top of the membrane insert in each well for 5 days. Control cells were cultured in William's E medium without hair follicles. […]

[3] = system: mouse dermal cells isolated from day 15 wounds; test: Primary mouse adipogenic cell culture; assay type: cell-based; conditions: 6 ng/ml hBMP4 or 25 ng/ml hBMP2 with differentiation media
Procedure: Primary scar cells were isolated from day 15 wounds as described in D. Gay et al., Nature medicine 19:916 (2013) with minor modifications. Single cell fractions were created and cultured to confluence in high-glucose to DMEM (Gibco) supplemented with 10% FBS (Atlanta Biologicals) and […] Pen/Strep cocktail (Gibco). […] After three days, cells differentiation media was switched to adipocyte maintenance media (Cell Solutions). Cells were cultured in a water-jacketed incubator at 37° C. with 5% CO2 output
(§3) Total RNA was isolated using Trizol reagent (Thermo) or RNEasy Micro-Kit (Qiagen) as per manufacturer's protocol with minor modifications. Total RNA was reverse-transcribed and cDNA was amplified using PCR primers described in J. Ishibashi et al., Mol Cell Biol 32:2289 (2012). See Tables 3 and 4 for the sequences of primers used.

human keloid scar cells = test: Primary human adipogenic cell culture, keloid scar cells; assay type: cell-based; conditions: 20 ng/ml hBMP4 for 48 hours, then adipogenic cocktail; for adipogenic conversion of keloid scar cells (Oil Red O positive adipocytes): n=3
Procedure: as §2
Primary human scar cells were cultured in DMEM/F12 media (Gibco) supplemented with 10% FBS (Fisher Scientific). Upon confluency, cells were switched to serum free DMEM/F12 media and treated with 20 ng/ml recombinant hBMP4 protein (R&D Systems) for 48 hours before differentiation. For the hair follicle co-culture, cells were grown in 12-well trans-well plates. Once near confluency, medium was changed to William's E hair follicle organ culture medium, and 40 microdissected human scalp anagen hair follicles were co-cultured on top of the membrane insert in each well for 5 days. Control cells were cultured in William's E medium without hair follicles. In all cases, adipogenic differentiation was induced by adding adipogenic cocktail: DMEM/F12 media supplemented with 1% ITS premix (insulin-transferrin-selenium; BD Biosciences), 0.5 mM isobutylmethylxanthine (Sigma), 0.1 μM cortisol (Sigma), 1 μM dexamethasome (Sigma), 0.2 nM triiodothyronine (Sigma), and 1 μM rosiglitazone (Cayman Chemical). After 4 days of induction, cells were changed to maintenance media: DMEM/F12 media supplemented with 1% ITS premix (BD Biosciences), 0.1 μM cortisol (Sigma), and 0.2 nM triiodothyronine (Sigma). For the hair follicle co-culture, cells were maintained in the induction media for 7 days. Lipid droplets were visualized after 7 days and cells were harvested for RNA isolation on day 10.
as §3

[4] = listed as small-molecule inhibitor of SMAD1/5/8 phosphorylation

Molecule | Adipocyte/hair index (new adipocyte/follicle ratio) [1] | Adipocyte/hair index (new adipocyte/follicle ratio) [1, 4] | regeneration of new adipocytes in hair-bearing wounds [1] | regeneration of new adipocytes in hair-bearing wounds [1, 4] | Zfp423 activity (reporter) in dermal cells surrounding new hair follicles and in blood vessels (Zfp423) | Zfp423 activity (reporter) in dermal cells surrounding new hair follicles and in blood vessels (Zfp423; [4]) | qRT-PCR against select adipogenic genes ([2]; following hBMP4 treatment) | adipogenic potential of hypertrophic scar fibroblasts (Oil Red O) ([2]; hBMP4 for 48 hours prior to differentiation, vs non-hBMP4 control) | activation of adipocyte-specific genes (qRT-PCR) [3] | reprogramming of cultured mouse dermal cells into adipocytes ([3]; without BMP non-adipogenic) | expression of adipogenic genes ZNF423, ADIPOQ, ADIPOSIN, PPARG2, FABP4 (qRT-PCR) (human keloid scar cells) | expression of adipogenic genes ZNF423, ADIPOQ, ADIPOSIN, PPARG2, FABP4 (qRT-PCR) (human keloid scar cells; listed as hBMP4) | adipogenic conversion of keloid scar cells (Oil Red O positive adipocytes) (human keloid scar cells) | adipogenic conversion of keloid scar cells (Oil Red O positive adipocytes) (human keloid scar cells; listed as hBMP4)
c1ccc2c(-c3cnn4cc(-c5ccc(N6CCNCC6)cc5)cnc34)ccnc2c1 [LDN-193189] | 0.58 ± 0.35 | 0.58+/−0.35 | near complete loss of regenerated adipocytes | largely prevented new adipocyte regeneration | significantly downregulated | downregulated |  |  |  |  |  |  |  | 
B1 |  |  |  |  |  |  | only ADIPISIN becomes significantly upregulated | does not induce an increase in adipogenic potential | activation of adipocyte-specific genes | induced their reprogramming into adipocytes | expression of adipocyte markers; also recorded: activation of adipocyte-specific genes | upregulation of adipogenic genes | induced their conversion to lipid-laden adipocytes; also recorded: induced their reprogramming into adipocytes | consistently induced adipogenic conversion
